Columns and labels:
[1] = biological target: human CD137 on cells (UniProt Q07011 24-255); assay: FACS binding CHO-K1/human CD137 cells
[2] = biological target: T1, cynomolgus 5T4 on cells (cynomolgus macaque, UniProt Q4R8Y9 35-420); assay: FACS binding CHO-K1/cynomolgus 5T4 cells
T1 chain: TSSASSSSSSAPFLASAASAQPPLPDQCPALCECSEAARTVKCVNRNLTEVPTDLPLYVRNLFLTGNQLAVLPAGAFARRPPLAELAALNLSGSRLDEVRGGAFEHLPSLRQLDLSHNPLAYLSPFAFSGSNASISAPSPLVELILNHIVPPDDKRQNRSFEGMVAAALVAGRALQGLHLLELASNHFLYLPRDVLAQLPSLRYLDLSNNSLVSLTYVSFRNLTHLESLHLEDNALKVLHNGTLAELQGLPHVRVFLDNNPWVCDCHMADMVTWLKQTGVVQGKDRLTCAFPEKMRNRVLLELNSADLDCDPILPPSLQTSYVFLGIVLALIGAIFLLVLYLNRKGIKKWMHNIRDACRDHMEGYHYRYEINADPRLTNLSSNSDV

[3] = biological target: T2, human 5T4 on cells (UniProt Q13641 32-420); assay: FACS binding CT26 human 5T4 cells; CT26 cells
T2 chain: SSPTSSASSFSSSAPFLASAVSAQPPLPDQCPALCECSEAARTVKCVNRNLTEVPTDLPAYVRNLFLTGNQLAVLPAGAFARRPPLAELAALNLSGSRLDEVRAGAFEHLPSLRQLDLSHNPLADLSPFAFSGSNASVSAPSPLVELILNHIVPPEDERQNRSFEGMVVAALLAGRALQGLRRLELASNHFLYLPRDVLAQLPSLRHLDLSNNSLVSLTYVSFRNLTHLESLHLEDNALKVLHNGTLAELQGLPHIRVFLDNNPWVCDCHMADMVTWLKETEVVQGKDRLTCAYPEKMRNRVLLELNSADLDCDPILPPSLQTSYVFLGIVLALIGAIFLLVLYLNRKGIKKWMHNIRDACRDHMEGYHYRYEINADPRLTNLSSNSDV

human CD137 on cells, sequence (Q07011 24-255): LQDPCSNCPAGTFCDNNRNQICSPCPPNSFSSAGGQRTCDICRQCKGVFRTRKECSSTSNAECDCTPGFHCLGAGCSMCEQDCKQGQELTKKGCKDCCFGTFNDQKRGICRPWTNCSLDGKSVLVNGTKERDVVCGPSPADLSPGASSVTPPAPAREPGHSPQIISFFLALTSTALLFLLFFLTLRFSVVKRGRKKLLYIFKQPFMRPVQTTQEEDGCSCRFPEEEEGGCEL

B1: ALG.APV-004 (bispecific antibody)
chain 1: EVQLLESGGGLVQPGGSLRLSCAASGFTFSYGSMYWVRQAPGKGLEWVSSISSGSGSTYYADSVKGRFTISRDNSKNTLYLQMNSLRAEDTAVYYCARSSYYGSYYSIDYWGQGTLVTVSSEVQLLESGGGLVQPGGSLRLSCAASGFTFSSYAMSWVRQAPGKCLEWVSAISGSGGSTYYADSVKGRFTISRDNSKNTLYLQMNSLRAEDTAVYYCARYYGGYYSAWMDYWGQGTLVTVSSDIQMTQSPSSLSASVGDRVTITCRASQSISSYLNWYQQKPGKAPKLLIYAASSLQSGVPSRFSGSGSGTDFTLTISSLQPEDFATYYCQQTYGYLHTFGCGTRLEIK
chain 2: DIQMTQSPSSLSASVGDRVTITCRASQSISSYLNWYQQKPGKAPKLLIYAASSLQSGVPSRFSGSGSGTDFTLTISSLQPEDFATYYCQQYYDNLPTFGQGTKLEIK
[1]
  EC50: 0.39 nM
[2]
  EC50: 6.5 nM
[3]
  EC50: 1.5 nM

Reference: US20190382503A1 (published 2019)
